Specific activity of activated Factor C (hydrolysis of Boc-Val-Pro-Arg-AMC) (Units/mg protein) data for one substance are collected here from US20190256836.

The test system of this series is T1, recombinant Factor C protein from Tachypleus tridentatus produced in Leishmania tarentolae.
T1 sequence: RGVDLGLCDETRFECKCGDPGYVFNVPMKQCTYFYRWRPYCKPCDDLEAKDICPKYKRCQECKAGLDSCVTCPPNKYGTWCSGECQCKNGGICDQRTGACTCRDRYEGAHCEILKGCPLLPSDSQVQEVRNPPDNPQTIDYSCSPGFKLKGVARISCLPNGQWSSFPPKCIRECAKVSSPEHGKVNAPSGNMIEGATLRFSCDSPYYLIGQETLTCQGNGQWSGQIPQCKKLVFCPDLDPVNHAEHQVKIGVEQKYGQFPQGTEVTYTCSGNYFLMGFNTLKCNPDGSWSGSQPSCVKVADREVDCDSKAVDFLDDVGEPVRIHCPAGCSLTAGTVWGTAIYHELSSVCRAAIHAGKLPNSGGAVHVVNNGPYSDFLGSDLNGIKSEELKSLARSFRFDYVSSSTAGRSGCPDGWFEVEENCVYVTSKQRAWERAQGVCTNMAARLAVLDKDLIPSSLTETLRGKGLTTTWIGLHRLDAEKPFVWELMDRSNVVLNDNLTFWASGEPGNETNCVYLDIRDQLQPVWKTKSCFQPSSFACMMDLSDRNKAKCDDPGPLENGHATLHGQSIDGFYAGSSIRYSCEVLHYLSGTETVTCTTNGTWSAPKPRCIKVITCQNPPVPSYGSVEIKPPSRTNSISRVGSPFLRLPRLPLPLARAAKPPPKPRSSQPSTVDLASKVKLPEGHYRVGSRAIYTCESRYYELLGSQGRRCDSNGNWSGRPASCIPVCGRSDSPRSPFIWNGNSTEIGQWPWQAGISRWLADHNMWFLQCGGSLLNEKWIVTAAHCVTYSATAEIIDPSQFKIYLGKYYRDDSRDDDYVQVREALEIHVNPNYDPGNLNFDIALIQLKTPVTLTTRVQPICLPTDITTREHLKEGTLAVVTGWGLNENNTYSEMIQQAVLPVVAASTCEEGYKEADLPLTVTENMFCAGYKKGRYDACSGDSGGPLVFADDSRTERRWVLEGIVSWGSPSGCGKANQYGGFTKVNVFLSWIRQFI
The settings on record: in U/mg.

For chymotrypsin, the specific activity of activated Factor C (hydrolysis of Boc-Val-Pro-Arg-AMC) (Units/mg protein) was determined as 0.658.
